From the supplement of paper PMC10724198
± gives the standard deviation of the averaged measurements.

Test system: Saccharomyces cerevisiae
Assay: protein stability index of tFT-peptide fusion (C-terminal peptide) (PSI (0-1 scale)); higher = more stable (slower turnover)
Conditions: genetic background: wild type; temperature: 30 C
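Also: PSI is a weighted mean of sequencing reads over stability bins, variants kept only with over 10 reads, mCherry proximal and sfGFP distal, peptide attached via GGGS linker.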

Sequence | protein stability index
LLPPPPLPPLPL | 0.796 ± 0.1
LLPPVLPPTLPP | 0.633 ± 0.0075
LLPRPSLDPSPP | 0.682 ± 0.11
LLPSLSPPPTPP | 0.655 ± 0.051
LLPSSLPFPPLR | 0.72 ± 0.06
LLPYPAEPSPRR | 0.713 ± 0.013
LLRLDGGAGRSV | 0.627 ± 0.079
LLRPPAPPPLPT | 0.642 ± 0.17
LLRRLILLQATW | 0.5677 ± 0.0053
LLSGPPVPPSWS | 0.653 ± 0.19
LLSLALFACSIC | 0.63 ± 0.023
LLSLLLLSSSPP | 0.70828 ± 0.00034
LLSNDNRIKTIR | 0.725 ± 0.047
LLSPLFCYSSRS | 0.6457 ± 0.0013
LLSPLLLLASLS | 0.534 ± 0.013
LLSSPSVSPPPD | 0.6754 ± 0.0022
LLSVSFVGWPLT | 0.634 ± 0.062
LLTTGGRWWRRP | 0.669 ± 0.03
LLVNSFLIFPPH | 0.68474 ± 0.00059
LLVPCLQPPFRV | 0.622 ± 0.023
LLVTPAPRSTHF | 0.648 ± 0.064
LLWNFNLCHCEE | 0.701 ± 0.011
LLYANDPTRPVI | 0.652 ± 0.015
LMDIPGNPRSLY | 0.604 ± 0.072
LMGDRRLFSFSV | 0.719 ± 0.12
LMKSPGGTLTIR | 0.71 ± 0.053

Sequence | protein stability index
LMPPHPLFLSDI | 0.724 ± 0.012
LMQTGVNNQNTT | 0.72 ± 0.035
LMWPTSHLPQPQ | 0.734 ± 0.092
LNDEKIKGKTTK | 0.732 ± 0.012
LNGSRDEHKVMS | 0.674 ± 0.022
LNIPARVSGAVV | 0.636 ± 0.017
LNLRIGDVMRGG | 0.682 ± 0.022
LNNAIAGGSVGI | 0.702 ± 0.074
LNSRQATLRPQT | 0.716 ± 0.021
LNVVLTRTSVRY | 0.657 ± 0.041
LNYRVLTKVDER | 0.717 ± 0.048
LPAILALVPRYP | 0.674 ± 0.022
LPAISSPIPPSL | 0.701 ± 0.048
LPAPLGPRIPSL | 0.753 ± 0.15
LPARFLIDFTRV | 0.688 ± 0.029
LPATCFSPPSSS | 0.687 ± 0.057
LPFLFTSFAPAA | 0.776 ± 0.081
LPGEHSEFNYLL | 0.7198 ± 0.0036
LPGGECSLKGQQ | 0.701 ± 0.079
LPGTTFTPPVAS | 0.662 ± 0.008
LPHCPLNVFPLV | 0.654 ± 0.034
LPHLFLSVPSSP | 0.665 ± 0.038
LPLDSPSRPLPP | 0.722 ± 0.011
LPLFTIVPPFFF | 0.59 ± 0.011
LPLPGSFTLNYP | 0.733 ± 0.013
LPLPLLLFPPPH | 0.677 ± 0.041

Sequence | protein stability index
LPLRPPPSLLSR | 0.689 ± 0.064
LPMGTRGPAPGP | 0.73 ± 0.12
LPNLTIPSRAIA | 0.623 ± 0.0054
LPPCLEYLRVLR | 0.658 ± 0.07
LPPFSSPLSSLR | 0.693 ± 0.016
LPPHRPPAPDLS | 0.674 ± 0.049
LPPLLPSLSHAR | 0.6459 ± 0.003
LPPLPHLLSLYL | 0.658 ± 0.076
LPPPLPPPPPPV | 0.651 ± 0.017
LPPPLVPPLPSP | 0.7017 ± 0.0023
LPPPPLLIPLPT | 0.605 ± 0.062
LPPPPPASPPSP | 0.703 ± 0.01
LPPPPPILHLPS | 0.6463 ± 0.005
LPPPPPPPPPPP | 0.60887 ± 2.4e-05
LPPPPPPSHPPP | 0.697 ± 0.018
LPPPPSAPHPSP | 0.668 ± 0.023
LPPPPYPEFYPC | 0.772 ± 0.0089
LPPPRPLPRPCP | 0.748 ± 0.096
LPPPRSLPPILS | 0.656 ± 0.017
LPPRPSPPRRPP | 0.666 ± 0.016
LPPSPPPPPRQS | 0.739 ± 0.013
LPPSPPTPPQYT | 0.6977 ± 0.003
LPPSSPLPPPPP | 0.77 ± 0.047
LPRAGLVLSPLH | 0.661 ± 0.051
LPRERSFRLYKA | 0.739 ± 0.016
LPRPHARPPLSS | 0.583 ± 0.066

Sequence | protein stability index
LPRPPPLAGPPL | 0.734 ± 0.013
LPRPPPPPPPSP | 0.827 ± 0.098
LPRPTRLRTTPA | 0.685 ± 0.044
LPRSSRFPSPSR | 0.765 ± 0.012
LPRVPCRLAPPP | 0.689 ± 0.055
LPSLASPRLIPS | 0.609 ± 0.0066
LPSLPPPPSPSS | 0.641 ± 0.029
LPSLTPPPLLLS | 0.582 ± 0.0083
LPSPLGSSIFSN | 0.693 ± 0.015
LPSSVLTAAPSA | 0.661 ± 0.076
LPSTHVPPEPLG | 0.679 ± 0.077
LPTATSFNALNS | 0.714 ± 0.072
LPTHYHQSHTEP | 0.681 ± 0.052
LPTPRRHFRPPP | 0.657 ± 0.028
LPTVVTAVHQGL | 0.671 ± 0.014
LPVPLPYFVSYF | 0.607 ± 0.009
LPVPPPPVSVAN | 0.554 ± 0.0089
LPVSPDTLSPPL | 0.678 ± 0.022
LPWGGVVVGSMV | 0.73 ± 0.019
LQCGDWVETTGS | 0.709 ± 0.031
LQHSLNRKEIET | 0.688 ± 0.014
LQLFLWRVVAPV | 0.477 ± 0.038
LQLLPPGLRQLP | 0.679 ± 0.0079
LQTLSTLLPSLL | 0.689 ± 0.023
LRANSCCPLFGS | 0.739 ± 0.0036
LRARTPPPSHLP | 0.693 ± 0.02

Sequence | protein stability index
LRCWVGGALCGG | 0.685 ± 0.033
LREKFFWTRIRR | 0.724 ± 0.05
LRFLPHIPSGLS | 0.716 ± 0.019
LRFRPLSGRAFF | 0.664 ± 0.051
LRFSFFSSLFVL | 0.516 ± 0.019
LRGAGAGPEDVG | 0.6847 ± 0.0026
LRGGGGAGVFFG | 0.6491 ± 0.0025
LRHGLASYDHCG | 0.681 ± 0.02
LRHHARSYLPRL | 0.805 ± 0.18
LRLFCVLARSVV | 0.528 ± 0.018
LRLHPSPPVPSR | 0.7003 ± 0.0047
LRPLSFPTHTLL | 0.685 ± 0.021
LRPPFFLSPLPS | 0.728 ± 0.034
LRPPLASLRFSP | 0.78 ± 0.11
LRQQTRGTIIEC | 0.703 ± 0.029
LRRAFPSSTPLK | 0.698 ± 0.088
LRSGFVVTLSLS | 0.621 ± 0.037
LRSLNIVGTTAL | 0.66 ± 0.043
LRSLVRSRPAPP | 0.6744 ± 0.0042
LRSVISLSSLFS | 0.686 ± 0.011
LRTKRGKREEYD | 0.73 ± 0.015
LRVFPVFSWFDR | 0.678 ± 0.15
LRYSPLLFLSVV | 0.513 ± 0.013
LSALPSRPCSKR | 0.6893 ± 0.005
LSAVISHLGNSK | 0.65058 ± 0.0002
LSCTTSSRPSPP | 0.699 ± 0.063

Sequence | protein stability index
LSDDRTLFWISG | 0.728 ± 0.13
LSDFSLPTFLLL | 0.72 ± 0.065
LSFFLSSALLHP | 0.7 ± 0.028
LSFPSPSLCRPL | 0.694 ± 0.1
LSFSDPLSLPRH | 0.675 ± 0.079
LSFTFSQLLSFP | 0.681 ± 0.16
LSGPLILHLTSL | 0.693 ± 0.057
LSGRGVGSEGME | 0.721 ± 0.14
LSGTLALVVFTR | 0.6464 ± 0.001
LSGYIFFSFRSF | 0.505 ± 0.01
LSKTRRPKSADM | 0.7 ± 0.025
LSLGVYMGVGRG | 0.629 ± 0.0074
LSLICSLVHSIM | 0.635 ± 0.016
LSLPRCPKGVAH | 0.672 ± 0.055
LSLSNILDYFYC | 0.685 ± 0.044
LSLSTTLSADLY | 0.678 ± 0.021
LSLVDCIGFFFC | 0.603 ± 0.043
LSLYGLLLPTFE | 0.714 ± 0.037
LSPALPPPMSAA | 0.577 ± 0.026
LSPCPPLRPLLS | 0.676 ± 0.081
LSPFPSCLPPSV | 0.702 ± 0.045
LSPGPVHDRSRP | 0.675 ± 0.03
LSPIPLPPPLTS | 0.699 ± 0.044
LSPLHSPCLPCP | 0.679 ± 0.039
LSPPPSPLPPLP | 0.679 ± 0.019
LSPRPPSPPPPP | 0.688 ± 0.011

Sequence | protein stability index
LSPRTMYHAYPV | 0.712 ± 0.067
LSPSGATFWTPS | 0.676 ± 0.055
LSRGGVSCWWGH | 0.772 ± 0.033
LSRGLVVSFVLK | 0.662 ± 0.014
LSSFIHCLYSHC | 0.606 ± 0.035
LSSRVYDCTRQG | 0.675 ± 0.045
LSSSLLSLLYNF | 0.534 ± 0.039
LSTCVAESIEST | 0.68 ± 0.01
LSTPPRLPQPSP | 0.703 ± 0.051
LSVLPAFYPRSP | 0.758 ± 0.045
LSVPPFSFTLSL | 0.807 ± 0.25
LSVPWSTRPFSV | 0.703 ± 0.019
LSYSLSSPRVFH | 0.7337 ± 0.0022
LTDITGSIRNVH | 0.673 ± 0.037
LTDKHNETNINQ | 0.6501 ± 0.0042
LTFSRFIENHYL | 0.662 ± 0.015
LTGSPDSNPNSV | 0.68 ± 0.084
LTHQENNIWVSR | 0.703 ± 0.057
LTLPPLPPPSLP | 0.707 ± 0.0081
LTLTQAPVRTDF | 0.677 ± 0.018
LTPFFSRPSVLL | 0.72 ± 0.019
LTPRPLPRLSPP | 0.705 ± 0.028
LTPYLYPQPSSP | 0.673 ± 0.031
LTQPPPAPRVFF | 0.699 ± 0.013
LTRRSPSPRTLT | 0.644 ± 0.03
LTSLIPPLPFLF | 0.669 ± 0.032

Sequence | protein stability index
LTSSGLSFSAVL | 0.7249 ± 0.0027
LTYLLFPSSLQA | 0.677 ± 0.04
LVAYSPRFLHSP | 0.669 ± 0.038
LVCLFRGCGLRD | 0.714 ± 0.0084
LVCRYLGLRCSD | 0.597 ± 0.035
LVFCPCQSVVSL | 0.59 ± 0.043
LVFGRGCGWLSG | 0.664 ± 0.0071
LVFRPVPVIFGL | 0.635 ± 0.017
LVFSTLGSCFDG | 0.685 ± 0.0099
LVGFGGGGDGVV | 0.693 ± 0.032
LVGGGDRPGLGR | 0.66 ± 0.0079
LVGHENIVVRRA | 0.72 ± 0.011
LVGQVKYMIKEQ | 0.684 ± 0.028
LVGSSYGRTDML | 0.715 ± 0.016
LVLDCPISEVLL | 0.6403 ± 0.0055
LVLLPSASPLLL | 0.71 ± 0.044
LVLVRPGSVSPE | 0.731 ± 0.018
LVLYPFPPLHST | 0.6749 ± 0.0053
LVPTQGDFVVLL | 0.721 ± 0.053
LVRCGLGASVVV | 0.651 ± 0.041
